# According to the supplement of paper PMC6757056:
# ± gives the standard deviation of the averaged measurements.
# B1: library; a variant is named by its letters at N, in order (parent)
# chain: GCUGUCACCGGUGCUUGGUACGUUAUAUUCAGCCGGUCUGAUGAGUCUNNNNNNAGACGAAACAGC
# What was measured:
# (6R,S)-folinic acid [1] = variants of: B1; test: FACS-Seq fitted mean relative fluorescence mCherry/BFP without ligand (log10 relative fluorescence); HEK293T overexpressing SLC46A1; higher = higher reporter protein expression; conditions: without (6R,S)-folinic acid; ligand present: no
# Method: (§1)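 Hammerhead (sTRSV) ribozyme switch libraries with a ligand aptamer grafted on stem I and a randomized N4-6 loop II, cloned into the 3' UTR of mCherry and transiently transfected into HEK293T cells; RNA-Seq 72 h post transfection with ligand added 1 h before transfection; RNA read count / plasmid DNA read count normalized to the non-cleaving sTRSVctl (x100), log10; sequences with >100 DNA reads. FACS-Seq: lentiviral library sorted into 6 bins after 48 h ligand, log-normal fit mean of mCherry/BFP scaled to controls. Printed sequences are partial switch sequences.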
# (6R,S)-folinic acid [2] = variants of: B1; test: normalized RNA/DNA level without ligand (relative to sTRSVctl = 100) (log10 (% of sTRSVctl)); HEK293T overexpressing SLC46A1; higher = less ribozyme self-cleavage, higher mRNA level; conditions: without (6R,S)-folinic acid; ligand present: no
# Method: as §1
# (6R,S)-folinic acid [3] = variants of: B1; test: FACS-Seq fitted mean relative fluorescence mCherry/BFP with ligand (log10 relative fluorescence); HEK293T overexpressing SLC46A1; ligand concentration (+) FACS-Seq: 6 mM; higher = higher reporter protein expression; conditions: with (6R,S)-folinic acid; ligand present: yes
# Method: as §1
# (6R,S)-folinic acid [4] = variants of: B1; test: normalized RNA/DNA level with ligand (relative to sTRSVctl = 100) (log10 (% of sTRSVctl)); HEK293T overexpressing SLC46A1; ligand concentration (+) RNA-Seq: 6 mM; higher = less ribozyme self-cleavage, higher mRNA level; conditions: with (6R,S)-folinic acid; ligand present: yes
# Method: as §1
Variant,"FACS-Seq fitted mean (log10) ((6R,S)-folinic acid [1])","normalized RNA/DNA level without ligand (log10) ((6R,S)-folinic acid [2])","FACS-Seq fitted mean (log10) ((6R,S)-folinic acid [3])","normalized RNA/DNA level with ligand (log10) ((6R,S)-folinic acid [4])"
UAAUGG,0.152 ± 0.043,1.601 ± 0.011,0.399 ± 0.18,1.923 ± 0.0091
GAAAGG,0.138 ± 0.034,1.902 ± 0.0036,0.0807 ± 0.19,2 ± 0.021
GAAAGA,0.353 ± 0.015,2.011 ± 0.011,0.607 ± 0.25,2.04 ± 0.024
AAAGGC,0.486 ± 0.051,2.041 ± 0.0056,0.631 ± 0.18,2.04 ± 0.034
AAAGGG,0.172 ± 0.033,1.671 ± 0.016,0.631 ± 0.087,1.97 ± 0.049
AAAGGA,0.158 ± 0.1,1.909 ± 0.007,0.355 ± 0.16,2 ± 0.027
GAAGUU,0.522 ± 0.18,2.007 ± 0.0088,0.481 ± 0.2,2.04 ± 0.03
GAAGUA,0.299 ± 0.013,1.966 ± 0.0082,0.331 ± 0.045,2.014 ± 0.019
GAAGUG,0.327 ± 0.098,1.8629 ± 0.0002,0.369 ± 0.033,1.99 ± 0.026
AAACAA,0.376 ± 0.066,1.971 ± 0.0088,0.436 ± 0.009,1.99 ± 0.022
AAACAU,0.298 ± 0.095,1.971 ± 0.0055,0.199 ± 0.17,2.01 ± 0.045
AAACAC,0.222 ± 0.096,2.001 ± 0.01,0.0733 ± 0.14,2.01 ± 0.026
AAACAG,0.346 ± 0.021,1.925 ± 0.0068,0.296 ± 0.11,1.99 ± 0.046
CAAGCA,0.195 ± 0.065,2.018 ± 0.012,0.434 ± 0.14,2.03 ± 0.032
CAAGCU,0.363 ± 0.071,2.047 ± 0.0037,0.443 ± 0.099,2.05 ± 0.043
CAAUGA,0.153 ± 0.14,1.998 ± 0.0058,0.267 ± 0.16,2.02 ± 0.049
AAACUG,0.318 ± 0.15,1.933 ± 0.0021,0.151 ± 0.091,2 ± 0.037
GAACGC,0.22 ± 0.11,1.946 ± 0.0053,0.118 ± 0.03,1.99 ± 0.022
GAACGA,0.313 ± 0.13,1.997 ± 0.012,0.623 ± 0.36,2.031 ± 0.02
GAACGG,0.0676 ± 0.01,1.94 ± 0.032,0.104 ± 0.12,2.018 ± 0.019
UAACCG,0.215 ± 0.047,1.8952 ± 0.00059,0.522 ± 0.21,2.01 ± 0.028
UAACCA,0.441 ± 0.11,2.007 ± 0.0037,0.274 ± 0.073,1.98 ± 0.0045
UAAAUG,0.33 ± 0.034,1.7477 ± 0.001,0.685 ± 0.3,1.95 ± 0.039
AAAGCA,0.3689 ± 0.0015,1.975 ± 0.0052,0.575 ± 0.35,1.98 ± 0.044

Variant,"FACS-Seq fitted mean (log10) ((6R,S)-folinic acid [1])","normalized RNA/DNA level without ligand (log10) ((6R,S)-folinic acid [2])","FACS-Seq fitted mean (log10) ((6R,S)-folinic acid [3])","normalized RNA/DNA level with ligand (log10) ((6R,S)-folinic acid [4])"
AAAGCG,0.0389 ± 0.01,1.743 ± 0.0089,0.352 ± 0.079,1.989 ± 0.013
UAAGAA,0.023 ± 0.078,1.882 ± 0.011,-0.19 ± 0.37,1.96 ± 0.022
UAAGAG,0.104 ± 0.05,1.667 ± 0.0094,0.3 ± 0.061,1.96 ± 0.038
AAAUCG,0.416 ± 0.0066,1.955 ± 0.0094,0.42 ± 0.12,2.03 ± 0.036
AAAUCC,0.504 ± 0.068,2.044 ± 0.013,0.398 ± 0.23,2.03 ± 0.044
UAAACG,0.324 ± 0.13,1.799 ± 0.016,0.717 ± 0.1,1.95 ± 0.032
GAAUGA,0.25 ± 0.057,1.992 ± 0.0057,0.299 ± 0.2,2.02 ± 0.022
GAAUGG,0.297 ± 0.079,1.89 ± 0.013,0.386 ± 0.37,2.03 ± 0.019
AAAAGG,0.512 ± 0.12,1.875 ± 0.005,0.459 ± 0.17,1.98 ± 0.038
AAAAGC,0.477 ± 0.09,1.999 ± 0.011,0.358 ± 0.1,2.03 ± 0.042
UAAGUU,0.118 ± 0.029,1.952 ± 0.0089,0.124 ± 0.17,2.01 ± 0.041
UAAGUC,0.228 ± 0.093,2.0619 ± 0.00099,0.173 ± 0.12,2.038 ± 0.0091
UAAGUG,0.502 ± 0.074,1.6686 ± 0.0006,0.881 ± 0.18,1.93 ± 0.055
UAACUA,0.248 ± 0.065,1.98 ± 0.027,0.41 ± 0.11,2.03 ± 0.028
UAACUG,0.401 ± 0.0068,1.846 ± 0.015,0.499 ± 0.1,2 ± 0.024
UAACUU,0.511 ± 0.0079,1.994 ± 0.011,0.408 ± 0.12,2 ± 0.045
AAACGA,0.186 ± 0.039,2 ± 0.018,0.192 ± 0.16,2.03 ± 0.026
AAACGU,0.248 ± 0.096,1.966 ± 0.011,0.326 ± 0.22,2 ± 0.024
AAACGG,0.359 ± 0.076,1.903 ± 0.013,0.384 ± 0.1,2.006 ± 0.016
UAAUUG,0.377 ± 0.016,1.794 ± 0.0071,0.456 ± 0.012,1.972 ± 0.017
GAAUCA,0.429 ± 0.13,2.017 ± 0.005,0.409 ± 0.051,2.01 ± 0.03
GAAUCG,0.149 ± 0.053,1.966 ± 0.0024,0.372 ± 0.14,2 ± 0.022
UAAUAG,0.255 ± 0.04,1.75 ± 0.028,0.58 ± 0.11,1.96 ± 0.057
UAAUAU,0.201 ± 0.005,1.922 ± 0.0069,0.297 ± 0.077,1.99 ± 0.026

Variant,"FACS-Seq fitted mean (log10) ((6R,S)-folinic acid [1])","normalized RNA/DNA level without ligand (log10) ((6R,S)-folinic acid [2])","FACS-Seq fitted mean (log10) ((6R,S)-folinic acid [3])","normalized RNA/DNA level with ligand (log10) ((6R,S)-folinic acid [4])"
GAAUAC,0.463 ± 0.14,1.974 ± 0.0095,0.313 ± 0.25,2 ± 0.053
GAAUAA,-0.184 ± 0.011,1.976 ± 0.0046,-0.234 ± 0.28,1.989 ± 0.016
CACAAA,0.458 ± 0.03,1.981 ± 0.014,0.462 ± 0.16,1.99 ± 0.033
AAAACG,0.631 ± 0.022,1.93 ± 0.0068,0.582 ± 0.16,1.99 ± 0.015
AAAACU,0.355 ± 0.07,2.024 ± 0.00081,0.358 ± 0.15,2.03 ± 0.035
AAAACA,0.359 ± 0.036,1.988 ± 0.0088,0.304 ± 0.0079,2 ± 0.024
UAAAGG,0.0807 ± 0.018,1.631 ± 0.0062,0.507 ± 0.13,1.94 ± 0.035
UAAAGC,0.217 ± 0.12,1.973 ± 0.017,0.319 ± 0.15,2 ± 0.06
UAAAGA,0.265 ± 0.1,1.88 ± 0.019,0.312 ± 0.088,1.99 ± 0.029
UAAAGU,0.553 ± 0.0074,1.886 ± 0.0062,0.894 ± 0.26,1.99 ± 0.045
GAAUUG,0.416 ± 0.035,1.928 ± 0.0066,0.46 ± 0.014,2 ± 0.066
GAAUUA,0.508 ± 0.088,2.0059 ± 0.0002,0.572 ± 0.15,2.03 ± 0.031
GAAGGC,0.492 ± 0.035,1.951 ± 0.006,0.635 ± 0.019,2.009 ± 0.0033
CAACGA,0.682 ± 0.03,2.008 ± 0.0085,0.653 ± 0.17,2.005 ± 0.018
AAAAUU,0.432 ± 0.056,2.0158 ± 0.0011,0.29 ± 0.039,2.02 ± 0.031
AAAAUA,0.397 ± 0.014,1.9645 ± 0.00067,0.47 ± 0.066,2 ± 0.025
CAAUUC,-0.0653 ± 0.041,2.019 ± 0.012,-0.136 ± 0.18,1.998 ± 0.016
CAAUUA,0.413 ± 0.065,1.963 ± 0.016,0.429 ± 0.07,1.989 ± 0.015
UACAAG,0.55 ± 0.1,1.74 ± 0.032,0.813 ± 0.031,1.94 ± 0.032
UACAAA,0.165 ± 0.11,1.9485 ± 0.00073,0.179 ± 0.031,1.99 ± 0.019
UACAAU,0.467 ± 0.071,1.95 ± 0.02,0.559 ± 0.071,2 ± 0.026
GAAGCG,0.117 ± 0.13,1.929 ± 0.012,0.259 ± 0.065,2.02 ± 0.034
GAAGCU,0.0826 ± 0.071,2.018 ± 0.015,0.0358 ± 0.15,2.04 ± 0.022
GAAGCA,0.272 ± 0.031,1.967 ± 0.015,0.486 ± 0.021,2 ± 0.024
